Data from publication PMC7102495.

Columns and labels:
Assay in all cases: FRET or BRET
[1] = molecular target: ^NDD_(BaeN)+mTurquoise2 (Bacillus amyloliquefaciens FZB42 | not stated)
[2] = molecular target: ^NDD_(DifG)+mTurquoise2 (Bacillus amyloliquefaciens FZB42 | not stated)
[3] = molecular target: ^NDD_(MlnC)+mTurquoise2 (Bacillus amyloliquefaciens FZB42 | not stated)

**Q.** Venus+^CDD_(BaeM) was tested. Which Kd [1] did it give?
**A.** The Kd was 7.4 µM.

**Q.** Which Kd [2] does the source give for Venus+^CDD_(DifF) here?
**A.** Its Kd is 6.3 µM.

**Q.** For Venus+^CDD_(MlnB), which Kd [3] is on record?
**A.** The Kd was 2.9 µM.
